From patent US10925971B2, “Methods of treating PRLR positive breast cancer” (Regeneron Pharmaceuticals, Inc., priority 2016, dated 2021)

Molecular target: T1, hPRLR-mmH (SEQ ID NO:406) (Homo sapiens, UniProt P16471)
T1 construct: this experiment was conducted with a truncated form of PRLR (i.e., hPRLR-mmH)
Test: Epitope mapping by hydrogen/deuterium exchange with MALDI-TOF MS
Format: binding
Experimental: Experiments were conducted to determine the amino acid residues of PRLR with which H1H6958N2 interacts. For this purpose hydrogen/deuterium (H/D) exchange epitope mapping was carried out. A general description of the H/D exchange method is set forth in e.g., Ehring (1999) Analytical Biochemistry 267(2):252-259; and Engen and Smith (2001) Anal. Chem. 73:256A-265A.
To map the binding epitope(s) of antibody H1H6958N2 on hPRLR via H/D exchange, a construct comprising a recombinant extracellular domain of hPRLR with a C-terminal myc-myc-hexahistidine tag (hPRLR-mmH; SEQ ID NO: SEQ ID NO:406) was buffer exchanged to PBS with a final concentration of 8 mg/mL, and antibody H1H6958N2 was covalently attached to N-hydroxysuccinimide (NHS) agarose beads (GE Lifescience)
In the ‘on-solution/off-beads’ (on-exchange in solution followed by off-exchange on beads) experiment, the hPRLR was deuterated for 5 min or 10 min in PBS buffer prepared with D2O, and then bound to H1H6958N2 beads through a 2 min incubation. The hPRLR-bound beads were washed with PBS aqueous buffer (prepared with H2O) and incubated PBS buffer for half of the on-exchange time. After the off-exchange, the bound hPRLR was eluted from beads with an ice-cold low pH TFA solution. The eluted hPRLR was then digested with immobilized pepsin (Thermo Scientific) for 5 min. The resulting peptides were desalted using ZipTip® chromatographic pipette tips and immediately analyzed by UltrafleXtreme matrix assisted laser desorption ionization time of flight (MALDI-TOF)-TOF mass spectrometry (MS).
In the ‘on-beads/off-beads’ (on-exchange on beads followed by off-exchange on beads) experiment, hPRLR was first bound to H1H6958N2 beads and then incubated for 5 min or 10 min in D2O for on-exchange. The following steps (off-exchange, pepsin digestion, and MS analysis) were carried out as described for the ‘on-solution/off-beads’ procedure. The centroid values or average mass-to-charge ratios (m/z) of all the detected peptides were calculated and compared between these two sets of experiments.
The results are summarized in Table 29 which provides a comparison of the centroid m/z values for all the detected peptides identified by liquid chromatography and MS following the H/D exchange and peptic digest procedure described above. For purposes of the present Example, a positive difference (A) of at least 0.20 m/z in both experiments indicates amino acids protected by antibody binding. Segments meeting this criterion are indicated by bold text and an asterisk (*) in Table 29. [Note that, although this experiment was conducted with a truncated form of PRLR (i.e., hPRLR-mmH; SEQ ID NO: 406), residue numbering in the far left column of Table 29 has been adjusted to correspond to the amino acid sequence of the full-length PRLR protein represented by SEQ ID NO: 404.]

[1] = hPRLR peptide residues 61-71 of SEQ ID NO: 404, Experiment I 5 min on-/2.5 min off-exchange
[2] = hPRLR peptide residues 61-71 of SEQ ID NO: 404, Experiment II 10 min on-/5 min off-exchange
[3] = hPRLR peptide residues 64-71 of SEQ ID NO: 404, Experiment I 5 min on-/2.5 min off-exchange
[4] = hPRLR peptide residues 64-71 of SEQ ID NO: 404, Experiment II 10 min on-/5 min off-exchange
[5] = hPRLR peptide residues 64-72 of SEQ ID NO: 404, Experiment I 5 min on-/2.5 min off-exchange
[6] = hPRLR peptide residues 64-72 of SEQ ID NO: 404, Experiment II 10 min on-/5 min off-exchange
[7] = hPRLR peptide residues 72-94* of SEQ ID NO: 404 (* = protected by antibody binding), Experiment I 5 min on-/2.5 min off-exchange
[8] = hPRLR peptide residues 72-94* of SEQ ID NO: 404 (* = protected by antibody binding), Experiment II 10 min on-/5 min off-exchange
[9] = hPRLR peptide residues 72-95* of SEQ ID NO: 404 (* = protected by antibody binding), Experiment I 5 min on-/2.5 min off-exchange
[10] = hPRLR peptide residues 72-95* of SEQ ID NO: 404 (* = protected by antibody binding), Experiment II 10 min on-/5 min off-exchange
[11] = hPRLR peptide residues 96-101* of SEQ ID NO: 404 (* = protected by antibody binding), Experiment I 5 min on-/2.5 min off-exchange
[12] = hPRLR peptide residues 96-101* of SEQ ID NO: 404 (* = protected by antibody binding), Experiment II 10 min on-/5 min off-exchange
[13] = hPRLR peptide residues 96-102* of SEQ ID NO: 404 (* = protected by antibody binding), Experiment I 5 min on-/2.5 min off-exchange
[14] = hPRLR peptide residues 96-102* of SEQ ID NO: 404 (* = protected by antibody binding), Experiment II 10 min on-/5 min off-exchange
[15] = hPRLR peptide residues 133-147 of SEQ ID NO: 404, Experiment I 5 min on-/2.5 min off-exchange
[16] = hPRLR peptide residues 133-147 of SEQ ID NO: 404, Experiment II 10 min on-/5 min off-exchange
[17] = hPRLR peptide residues 134-147 of SEQ ID NO: 404, Experiment I 5 min on-/2.5 min off-exchange
[18] = hPRLR peptide residues 134-147 of SEQ ID NO: 404, Experiment II 10 min on-/5 min off-exchange
[19] = hPRLR peptide residues 135-147 of SEQ ID NO: 404, Experiment I 5 min on-/2.5 min off-exchange
[20] = hPRLR peptide residues 135-147 of SEQ ID NO: 404, Experiment II 10 min on-/5 min off-exchange
[21] = hPRLR peptide residues 136-147 of SEQ ID NO: 404, Experiment I 5 min on-/2.5 min off-exchange
[22] = hPRLR peptide residues 136-147 of SEQ ID NO: 404, Experiment II 10 min on-/5 min off-exchange
[23] = hPRLR peptide residues 137-147 of SEQ ID NO: 404, Experiment I 5 min on-/2.5 min off-exchange
[24] = hPRLR peptide residues 137-147 of SEQ ID NO: 404, Experiment II 10 min on-/5 min off-exchange
[25] = hPRLR peptide residues 168-179 of SEQ ID NO: 404, Experiment I 5 min on-/2.5 min off-exchange
[26] = hPRLR peptide residues 168-179 of SEQ ID NO: 404, Experiment II 10 min on-/5 min off-exchange
[27] = hPRLR peptide residues 168-180 of SEQ ID NO: 404, Experiment I 5 min on-/2.5 min off-exchange

T1 sequence (P16471 with tags, fused parts or gaps): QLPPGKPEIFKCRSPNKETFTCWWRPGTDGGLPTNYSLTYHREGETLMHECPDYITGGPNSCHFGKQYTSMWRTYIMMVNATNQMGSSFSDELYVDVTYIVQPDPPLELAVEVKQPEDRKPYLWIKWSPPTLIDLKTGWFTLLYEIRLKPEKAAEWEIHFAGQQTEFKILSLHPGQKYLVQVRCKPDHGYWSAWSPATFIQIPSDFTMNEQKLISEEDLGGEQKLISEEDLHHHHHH

B1: H1H6958N2: anti-PRLR antibody, receptor blocking, human IgG1 Fc form of H2M6958N2 of Table 1; HCVR/LCVR SEQ ID NOs 290/298 (antibody, V domains shown)
VH: QVQLVESGGGVVQPGRSLRLSCGASGFTFRNYGMQWVRQGPGKGLEWVTLISFDGNDKYYADSVKGRFTISRDNSKNTLFLQMNSLRTEDTAVYYCARGGDFDYWGQGTLVTVSS
VL: DIQMTQSPSSLSASVGDRVTITCRASQDIRKDLGWYQQKPGKAPKRLIYAASSLHSGVPSRFSGSGSGTEFTLTISSLQPEDFATYYCLQHNSYPMYTFGQGTKLEIK
In the case of B1, the “epitope of PRLR with which the antibody interacts” value (delta centroid greater than 0.20 m/z in both experiments) is reported as “amino acids 72 to 102 of SEQ ID NO: 404”, the “centroid m/z, on-beads/off-beads” value [1] is reported as 1306.50 m/z and the “centroid m/z, on-solution/off beads” value [1] is reported as 1306.39 m/z. For the same molecule, the “Δ (centroid m/z difference)” value [1] was −0.10 m/z, the “centroid m/z, on-beads/off-beads” value [2] was 1306.38 m/z and the “centroid m/z, on-solution/off beads” value [2] was 1306.34 m/z. For the same molecule, the “Δ (centroid m/z difference)” value [2] was −0.04 m/z, the “centroid m/z, on-beads/off-beads” value [3] was 1005.05 m/z and the “centroid m/z, on-solution/off beads” value [3] was 1005.13 m/z. The “Δ (centroid m/z difference)” value [3] was 0.07 m/z, the “centroid m/z, on-beads/off-beads” value [4] was 1005.18 m/z and the “centroid m/z, on-solution/off beads” value [4] was 1005.13 m/z. For the same molecule, the “Δ (centroid m/z difference)” value [4] was −0.05 m/z, the “centroid m/z, on-beads/off-beads” value [5] was 1136.15 m/z and the “centroid m/z, on-solution/off beads” value [5] was 1136.16 m/z. For the same molecule, the “Δ (centroid m/z difference)” value [5] was 0.01 m/z, the “centroid m/z, on-beads/off-beads” value [6] was 1136.49 m/z and the “centroid m/z, on-solution/off beads” value [6] was 1136.33 m/z. For the same molecule, the “Δ (centroid m/z difference)” value [6] was −0.16 m/z, the “centroid m/z, on-beads/off-beads” value [7] was 2572.17 m/z and the “centroid m/z, on-solution/off beads” value [7] was 2573.91 m/z. For the same molecule, the “Δ (centroid m/z difference)” value [7] was 1.74 m/z, the “centroid m/z, on-beads/off-beads” value [8] was 2572.12 m/z and the “centroid m/z, on-solution/off beads” value [8] was 2573.74 m/z. For the same molecule, the “Δ (centroid m/z difference)” value [8] was 1.62 m/z, the “centroid m/z, on-beads/off-beads” value [9] was 2703.43 m/z and the “centroid m/z, on-solution/off beads” value [9] was 2705.49 m/z. The “Δ (centroid m/z difference)” value [9] was 2.06 m/z, the “centroid m/z, on-beads/off-beads” value [10] was 2703.70 m/z and the “centroid m/z, on-solution/off beads” value [10] was 2705.29 m/z. For the same molecule, the “Δ (centroid m/z difference)” value [10] was 1.60 m/z, the “centroid m/z, on-beads/off-beads” value [11] was 870.20 m/z and the “centroid m/z, on-solution/off beads” value [11] was 870.70 m/z. For the same molecule, the “centroid m/z, on-beads/off-beads” value [12] was 870.20 m/z, the “centroid m/z, on-solution/off beads” value [12] was 870.71 m/z and the “Δ (centroid m/z difference)” value [12] was 0.52 m/z. The “centroid m/z, on-beads/off-beads” value [13] was 1001.22 m/z, the “centroid m/z, on-solution/off beads” value [13] was 1001.59 m/z and the “Δ (centroid m/z difference)” value [13] was 0.37 m/z. The “centroid m/z, on-beads/off-beads” value [14] was 1001.14 m/z, the “centroid m/z, on-solution/off beads” value [14] was 1001.62 m/z and the “Δ (centroid m/z difference)” value [14] was 0.48 m/z. For the same molecule, the “centroid m/z, on-beads/off-beads” value [15] was 1786.37 m/z, the “centroid m/z, on-solution/off beads” value [15] was 1786.59 m/z and the “Δ (centroid m/z difference)” value [15] was 0.22 m/z. The “centroid m/z, on-beads/off-beads” value [16] was 1786.52 m/z, the “centroid m/z, on-solution/off beads” value [16] was 1786.55 m/z and the “Δ (centroid m/z difference)” value [16] was 0.02 m/z. The “centroid m/z, on-beads/off-beads” value [17] was 1673.29 m/z, the “centroid m/z, on-solution/off beads” value [17] was 1673.36 m/z and the “Δ (centroid m/z difference)” value [17] was 0.07 m/z. The “centroid m/z, on-beads/off-beads” value [18] was 1673.39 m/z, the “centroid m/z, on-solution/off beads” value [18] was 1673.50 m/z and the “Δ (centroid m/z difference)” value [18] was 0.11 m/z. The “centroid m/z, on-beads/off-beads” value [19] was 1602.02 m/z, the “centroid m/z, on-solution/off beads” value [19] was 1602.15 m/z and the “Δ (centroid m/z difference)” value [19] was 0.13 m/z. For the same molecule, the “centroid m/z, on-beads/off-beads” value [20] was 1602.04 m/z, the “centroid m/z, on-solution/off beads” value [20] was 1602.15 m/z and the “Δ (centroid m/z difference)” value [20] was 0.11 m/z. For the same molecule, the “centroid m/z, on-beads/off-beads” value [21] was 1502.88 m/z, the “centroid m/z, on-solution/off beads” value [21] was 1502.85 m/z and the “Δ (centroid m/z difference)” value [21] was −0.03 m/z. The “centroid m/z, on-beads/off-beads” value [22] was 1502.88 m/z, the “centroid m/z, on-solution/off beads” value [22] was 1502.79 m/z and the “Δ (centroid m/z difference)” value [22] was −0.09 m/z. The “centroid m/z, on-beads/off-beads” value [23] was 1373.68 m/z, the “centroid m/z, on-solution/off beads” value [23] was 1373.78 m/z and the “Δ (centroid m/z difference)” value [23] was 0.09 m/z. The “centroid m/z, on-beads/off-beads” value [24] was 1373.84 m/z, the “centroid m/z, on-solution/off beads” value [24] was 1373.80 m/z and the “Δ (centroid m/z difference)” value [24] was −0.04 m/z. For the same molecule, the “centroid m/z, on-beads/off-beads” value [25] was 1447.71 m/z, the “centroid m/z, on-solution/off beads” value [25] was 1447.73 m/z and the “Δ (centroid m/z difference)” value [25] was 0.02 m/z. For the same molecule, the “centroid m/z, on-beads/off-beads” value [26] was 1447.78 m/z, the “centroid m/z, on-solution/off beads” value [26] was 1447.76 m/z and the “Δ (centroid m/z difference)” value [26] was −0.02 m/z. The “centroid m/z, on-beads/off-beads” value [27] was 1633.66 m/z and the “centroid m/z, on-solution/off beads” value [27] was 1633.59 m/z.
